Results reported in publication PMC9352680, “A comprehensive thermodynamic model for RNA binding by the Saccharomyces cerevisiae Pumilio protein PUF4”.

T1: PUF4 RNA-binding domain (Saccharomyces cerevisiae, UniProt P25339 537-888)
T1 sequence: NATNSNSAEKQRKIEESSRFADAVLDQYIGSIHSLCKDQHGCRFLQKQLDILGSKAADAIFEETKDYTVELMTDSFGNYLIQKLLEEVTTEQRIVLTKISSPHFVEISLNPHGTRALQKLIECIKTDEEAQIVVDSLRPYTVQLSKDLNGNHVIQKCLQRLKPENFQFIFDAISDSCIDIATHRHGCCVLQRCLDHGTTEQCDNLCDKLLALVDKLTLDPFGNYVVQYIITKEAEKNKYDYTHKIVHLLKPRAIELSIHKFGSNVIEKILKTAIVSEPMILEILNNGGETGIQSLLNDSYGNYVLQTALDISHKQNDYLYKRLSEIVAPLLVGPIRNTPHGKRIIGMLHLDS


Biological target: T1, PUF4 RNA-binding domain
Assay: Mg; RNA-MaP; 20 mM Na-HEPES pH 7.4, 30 mM KOAc, 0.75 mM MgCl2, 0.1% Tween-20, 5% glycerol, 0.1 mg/mL BSA, 2 mM DTT; 25 C; 0.0125-409.6 nM protein
Conditions: tags: N-His6-TEV cleaved; C-SNAP kept, Cy3B-labelled; label: tethered on chip by stalled RNA polymerase

Row | Binder | Kd [nM]
1 | UCUCUUCUUGUAUUAUUAACUCUCUU (ssRNA) [Id_ii_S1_P5E.2_K5.1_C5.2_H5.1_A5.1_F5.1_T5.2_[T11A]_[A12C]] | 5.25
2 | UCUCUUUGUAUAUUAUUAGCUCUCUU (ssRNA) [Id_ii_S1_P5E.3_K5.2_C5.2_[C-2T]_[T-1G]_H5.2_A5.1_F5.1_T5.2_[T11G]_[A12C]] | 0.703
3 | UCUCUUGUUAUAUUAUUACGUCUCUU (ssRNA) [Id_ii_S1_P5E.3_K5.2_C5.2_[C-2G]_H5.2_A5.1_F5.1_T5.2_[T11C]_[A12G]] | 22
4 | UCUCUUCUUGUAUUAUUAUUUCUCUU (ssRNA) [Id_ii_S1_P5E.2_K5.1_C5.2_H5.1_A5.1_F5.1_T5.2_[A12T]] | 4.09
5 | UCUCUUUGUAUCCUAUCUCUU (ssRNA) [Ic_S1_P4E.1_K4.1_C4.1_H4.1_A4.1_[A6C]_[T7C]_F4.1_T4.1] | 4.4
6 | UCUCUUCCUGUAUUAUUAAAUCUCUU (ssRNA) [Id_ii_S1_P5E.2_K5.1_C5.2_[T-1C]_H5.1_A5.1_F5.1_T5.2_[T11A]] | 18.8
7 | UCUCUUCGUGUAUUAUUAAAUCUCUU (ssRNA) [Id_ii_S1_P5E.2_K5.1_C5.2_[T-1G]_H5.1_A5.1_F5.1_T5.2_[T11A]] | 15
8 | UCUCUUGUUAUAUUAUUACCUCUCUU (ssRNA) [Id_ii_S1_P5E.3_K5.2_C5.2_[C-2G]_H5.2_A5.1_F5.1_T5.2_[T11C]_[A12C]] | 9
9 | UCUCUUUGUAUAUUAUUAUUUCUCUU (ssRNA) [Id_ii_S1_P5E.3_K5.2_C5.2_[C-2T]_[T-1G]_H5.2_A5.1_F5.1_T5.2_[A12T]] | 0.826
10 | UCUCUUUGUAUAUUAUUAACUCUCUU (ssRNA) [Id_ii_S1_P5E.3_K5.2_C5.2_[C-2T]_[T-1G]_H5.2_A5.1_F5.1_T5.2_[T11A]_[A12C]] | 0.55
11 | UCUCUUUGUAUGCUAUCUCUU (ssRNA) [Ib_S1_P4E.1_K4.1_C4.1_H4.1_A4.1_[A6G]_[T7C]_F4.1_T4.1] | 7.91
12 | UCUCUUCCUGUAUUAUUAUGUCUCUU (ssRNA) [Id_ii_S1_P5E.2_K5.1_C5.2_[T-1C]_H5.1_A5.1_F5.1_T5.2_[A12G]] | 6.12
13 | UCUCUUUCUAUAUUAUUAAAUCUCUU (ssRNA) [Id_ii_S1_P5E.3_K5.2_C5.2_[C-2T]_[T-1C]_H5.2_A5.1_F5.1_T5.2_[T11A]] | 557
14 | UCUCUUGCUAUAUUAUUACCUCUCUU (ssRNA) [Id_ii_S1_P5E.3_K5.2_C5.2_[C-2G]_[T-1C]_H5.2_A5.1_F5.1_T5.2_[T11C]_[A12C]] | 340
15 | UCUCUUCUUGUAUUAUUAAUUCUCUU (ssRNA) [Id_ii_S1_P5E.2_K5.1_C5.2_H5.1_A5.1_F5.1_T5.2_[T11A]_[A12T]] | 8.8
16 | UCUCUUGCUAUAUUAUUACGUCUCUU (ssRNA) [Id_ii_S1_P5E.3_K5.2_C5.2_[C-2G]_[T-1C]_H5.2_A5.1_F5.1_T5.2_[T11C]_[A12G]] | 549
17 | UCUCUUCCUGUAUUAUUAAGUCUCUU (ssRNA) [Id_ii_S1_P5E.2_K5.1_C5.2_[T-1C]_H5.1_A5.1_F5.1_T5.2_[T11A]_[A12G]] | 14.6
18 | UCUCUUCCUGUAUUAUUAUUUCUCUU (ssRNA) [Id_ii_S1_P5E.2_K5.1_C5.2_[T-1C]_H5.1_A5.1_F5.1_T5.2_[A12T]] | 7.47
19 | UCUCUUCCUGUAUUAUUAAUUCUCUU (ssRNA) [Id_ii_S1_P5E.2_K5.1_C5.2_[T-1C]_H5.1_A5.1_F5.1_T5.2_[T11A]_[A12T]] | 6.56

Row | Binder | Kd [nM]
20 | UCUCUUUCUAUAUUAUUAUCUCUCUU (ssRNA) [Id_ii_S1_P5E.3_K5.2_C5.2_[C-2T]_[T-1C]_H5.2_A5.1_F5.1_T5.2_[A12C]] | 455
21 | UCUCUUCUUGUAUUAUUAUGUCUCUU (ssRNA) [Id_ii_S1_P5E.2_K5.1_C5.2_H5.1_A5.1_F5.1_T5.2_[A12G]] | 5.83
22 | UCUCUUUCUAUAUUAUUACCUCUCUU (ssRNA) [Id_ii_S1_P5E.3_K5.2_C5.2_[C-2T]_[T-1C]_H5.2_A5.1_F5.1_T5.2_[T11C]_[A12C]] | 388
23 | UCUCUUUCUAUAUUAUUAACUCUCUU (ssRNA) [Id_ii_S1_P5E.3_K5.2_C5.2_[C-2T]_[T-1C]_H5.2_A5.1_F5.1_T5.2_[T11A]_[A12C]] | 581
24 | UCUCUUCAUGUAUUAUUAAUUCUCUU (ssRNA) [Id_ii_S1_P5E.2_K5.1_C5.2_[T-1A]_H5.1_A5.1_F5.1_T5.2_[T11A]_[A12T]] | 7.68
25 | UCUCUUCUUGUAUUAUUAAAUCUCUU (ssRNA) [Id_ii_S1_P5E.2_K5.1_C5.2_H5.1_A5.1_F5.1_T5.2_[T11A]] | 9.5
26 | UCUCUUCUUGUAUUAUUAGUUCUCUU (ssRNA) [Id_ii_S1_P5E.2_K5.1_C5.2_H5.1_A5.1_F5.1_T5.2_[T11G]_[A12T]] | 3.87
27 | UCUCUUGUUAUAUUAUUAGUUCUCUU (ssRNA) [Id_ii_S1_P5E.3_K5.2_C5.2_[C-2G]_H5.2_A5.1_F5.1_T5.2_[T11G]_[A12T]] | 15.3
28 | UCUCUUCAUGUAUUAUUAGUUCUCUU (ssRNA) [Id_ii_S1_P5E.2_K5.1_C5.2_[T-1A]_H5.1_A5.1_F5.1_T5.2_[T11G]_[A12T]] | 3.5
29 | UCUCUUGCUAUAUUAUUAUUUCUCUU (ssRNA) [Id_ii_S1_P5E.3_K5.2_C5.2_[C-2G]_[T-1C]_H5.2_A5.1_F5.1_T5.2_[A12T]] | 391
30 | UCUCUUUGUAUCGUAUCUCUU (ssRNA) [Ic_S1_P4E.1_K4.1_C4.1_H4.1_A4.1_[A6C]_[T7G]_F4.1_T4.1] | 12.3
31 | UCUCUUGCUAUAUUAUUAACUCUCUU (ssRNA) [Id_ii_S1_P5E.3_K5.2_C5.2_[C-2G]_[T-1C]_H5.2_A5.1_F5.1_T5.2_[T11A]_[A12C]] | 346
32 | UCUCUUCGUGUAUUAUUAUUUCUCUU (ssRNA) [Id_ii_S1_P5E.2_K5.1_C5.2_[T-1G]_H5.1_A5.1_F5.1_T5.2_[A12T]] | 7.48
33 | UCUCUUCCUGUAUUAUUAUCUCUCUU (ssRNA) [Id_ii_S1_P5E.2_K5.1_C5.2_[T-1C]_H5.1_A5.1_F5.1_T5.2_[A12C]] | 6.56
34 | UCUCUUGCUAUAUUAUUAUCUCUCUU (ssRNA) [Id_ii_S1_P5E.3_K5.2_C5.2_[C-2G]_[T-1C]_H5.2_A5.1_F5.1_T5.2_[A12C]] | 307
35 | UCUCUUUGUAUAUUAUUAUCUCUCUU (ssRNA) [Id_ii_S1_P5E.3_K5.2_C5.2_[C-2T]_[T-1G]_H5.2_A5.1_F5.1_T5.2_[A12C]] | 0.576
36 | UCUCUUUCUAUAUUAUUACAUCUCUU (ssRNA) [Id_ii_S1_P5E.3_K5.2_C5.2_[C-2T]_[T-1C]_H5.2_A5.1_F5.1_T5.2_[T11C]] | 630
37 | UCUCUUCAUGUAUUAUUAUCUCUCUU (ssRNA) [Id_ii_S1_P5E.2_K5.1_C5.2_[T-1A]_H5.1_A5.1_F5.1_T5.2_[A12C]] | 7.59
38 | UCUCUUUGUAUGAUAUCUCUU (ssRNA) [Ib_S1_P4E.1_K4.1_C4.1_H4.1_A4.1_[A6G]_[T7A]_F4.1_T4.1] | 4.57

Row | Binder | Kd [nM]
39 | UCUCUUUGUAUAUUAUUAAUUCUCUU (ssRNA) [Id_ii_S1_P5E.3_K5.2_C5.2_[C-2T]_[T-1G]_H5.2_A5.1_F5.1_T5.2_[T11A]_[A12T]] | 0.615
40 | UCUCUUCGUGUAUUAUUAUCUCUCUU (ssRNA) [Id_ii_S1_P5E.2_K5.1_C5.2_[T-1G]_H5.1_A5.1_F5.1_T5.2_[A12C]] | 7.38
41 | UCUCUUUCUAUAUUAUUAAUUCUCUU (ssRNA) [Id_ii_S1_P5E.3_K5.2_C5.2_[C-2T]_[T-1C]_H5.2_A5.1_F5.1_T5.2_[T11A]_[A12T]] | 615
42 | UCUCUUGUUAUAUUAUUAUCUCUCUU (ssRNA) [Id_ii_S1_P5E.3_K5.2_C5.2_[C-2G]_H5.2_A5.1_F5.1_T5.2_[A12C]] | 16.3
43 | UCUCUUUGUAUGGUAUCUCUU (ssRNA) [Ib_S1_P4E.1_K4.1_C4.1_H4.1_A4.1_[A6G]_[T7G]_F4.1_T4.1] | 14.6
44 | UCUCUUCUUGUAUUAUUAUCUCUCUU (ssRNA) [Id_ii_S1_P5E.2_K5.1_C5.2_H5.1_A5.1_F5.1_T5.2_[A12C]] | 5.07
45 | UCUCUUGUUAUAUUAUUAAAUCUCUU (ssRNA) [Id_ii_S1_P5E.3_K5.2_C5.2_[C-2G]_H5.2_A5.1_F5.1_T5.2_[T11A]] | 17.7
46 | UCUCUUCAUGUAUUAUUAGCUCUCUU (ssRNA) [Id_ii_S1_P5E.2_K5.1_C5.2_[T-1A]_H5.1_A5.1_F5.1_T5.2_[T11G]_[A12C]] | 3.39
47 | UCUCUUCUUGUAUUAUUAGCUCUCUU (ssRNA) [Id_ii_S1_P5E.2_K5.1_C5.2_H5.1_A5.1_F5.1_T5.2_[T11G]_[A12C]] | 2.47
48 | UCUCUUCAUGUAUUAUUAUUUCUCUU (ssRNA) [Id_ii_S1_P5E.2_K5.1_C5.2_[T-1A]_H5.1_A5.1_F5.1_T5.2_[A12T]] | 9.94
49 | UCUCUUCCUGUAUUAUUAACUCUCUU (ssRNA) [Id_ii_S1_P5E.2_K5.1_C5.2_[T-1C]_H5.1_A5.1_F5.1_T5.2_[T11A]_[A12C]] | 7.24
50 | UCUCUUUGUAUAUUAUUAAAUCUCUU (ssRNA) [Id_ii_S1_P5E.3_K5.2_C5.2_[C-2T]_[T-1G]_H5.2_A5.1_F5.1_T5.2_[T11A]] | 0.467
51 | UCUCUUCGUGUAUUAUUAAUUCUCUU (ssRNA) [Id_ii_S1_P5E.2_K5.1_C5.2_[T-1G]_H5.1_A5.1_F5.1_T5.2_[T11A]_[A12T]] | 10.1
52 | UCUCUUUCUAUAUUAUUACUUCUCUU (ssRNA) [Id_ii_S1_P5E.3_K5.2_C5.2_[C-2T]_[T-1C]_H5.2_A5.1_F5.1_T5.2_[T11C]_[A12T]] | 390
53 | UCUCUUUCUAUAUUAUUAAGUCUCUU (ssRNA) [Id_ii_S1_P5E.3_K5.2_C5.2_[C-2T]_[T-1C]_H5.2_A5.1_F5.1_T5.2_[T11A]_[A12G]] | 582
54 | UCUCUUGUUAUAUUAUUACUUCUCUU (ssRNA) [Id_ii_S1_P5E.3_K5.2_C5.2_[C-2G]_H5.2_A5.1_F5.1_T5.2_[T11C]_[A12T]] | 13.4
55 | UCUCUUGCUAUAUUAUUACAUCUCUU (ssRNA) [Id_ii_S1_P5E.3_K5.2_C5.2_[C-2G]_[T-1C]_H5.2_A5.1_F5.1_T5.2_[T11C]] | 509
56 | UCUCUUUCUAUAUUAUUACGUCUCUU (ssRNA) [Id_ii_S1_P5E.3_K5.2_C5.2_[C-2T]_[T-1C]_H5.2_A5.1_F5.1_T5.2_[T11C]_[A12G]] | 494
57 | UCUCUUGCUAUAUUAUUAAUUCUCUU (ssRNA) [Id_ii_S1_P5E.3_K5.2_C5.2_[C-2G]_[T-1C]_H5.2_A5.1_F5.1_T5.2_[T11A]_[A12T]] | 343
